# B1: fluorescently-labeled IGFBP-4: fluorescently-labeled IGFBP-4, unpublished observations (conjugate, UniProt P22692 22-258, looked up)
# Insulin-like growth …: DEAIHCPPCSEEKLARCRPPVGCEELVREPGCGCCATCALGLGMPCGVYTPRCGSGLRCYPPRGVEKPLHTLMHGQGVCMELAEIEAIQESLQPSDKDEGDHPNNSFSPCSAHDRRCLQKHFAKIRDRSTSGGKMKVNGAPREDARPVPQGSCQSELHRALERLAASQSRTHEDLYIIPIPNCDRNGNFHPKQCHPALDGQRGKCWCVDRKTGVKLPGGLEPKGELDCHQLADSFRE
# modifications: fluorescent label
# notes: fluorescently-labeled IGFBP-4, unpublished observations
# Test system: human brain endothelial cells (HBEC)
# Assay: Confocal microscopy internalization
# Format: cell-based
# Conditions: 100 nM AF647-CBP-4, 90 min (labelled IGFBP-4: unpublished observation)
# Method: HBEC (100000 cell/well in a 24-well format plate) were seeded on human fibronectin- (40 μg/ml) coated cover slips (Bellco Biotechnology) in 400 μl HBEC media and grown until reached 80% confluence. Cells were then washed twice with D-MEM and incubated in D-MEM for 30 min at 37 C. Then, D-MEM was removed and replaced with 250 μl/well of D-MEM containing 100 nM AF647-CBP-4 conjugate for 90 min and then washed with PBS. Cells were counterstained with the membrane dye DiOC5(3) for 15 seconds and then washed with PBS. Imaging of cells was performed using Zeiss LSM 410 (Carl Zeiss, Thornwood, N.Y., USA) inverted laser scanning microscope equipped with an Argon\Krypton ion laser and a Plan-Apochromat 63X, NA 1.4. Confocal images of two fluoroprobes were sequentially obtained using 488 and 647 nm excitation laser lines to detect DiOC5(3) (510-525 nm emission) and Alexa 647 fluorescence (670-810 nm emission).
molecule,measurement,value
B1,internalization into HBEC,internalized into HBEC

# From patent US20090048158A1, “Insulin-Like Growth Factor Binding Protein-4 Compounds and Methods for Inhibiting Angiogenesis and Tumor Growth in Mammalian Cells” (priority 2005, published 2009)
